# Experimental data taken from US20250059278A1 (SICHUAN HUIYU PHARMACEUTICAL, published 2025).
# Substitutions are numbered along the chain they refer to.
# B1: CD3 monoclonal antibody M28 (antibody, human IgG1, lambda, V domains shown)
# VH: EVQLVESGGGLVQPGGSLRLSCAASGFTFNTYAMNWVRQAPGKGLEWVARIRSKYNNYATYYADSVKDRFTISRDDSKSILYLQMNSLKTEDTAMYYCVRHHNFGNSYVSWFAYWGQGTLVTVSS
# VL: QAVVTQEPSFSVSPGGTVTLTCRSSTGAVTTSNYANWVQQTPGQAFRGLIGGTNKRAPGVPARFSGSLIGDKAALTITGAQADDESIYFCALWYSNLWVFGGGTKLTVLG
# notes: IgG: VH28 + IgG1 mutant CH, VL-1 + CL
# B2: Control antibody 1 (antibody, V domains shown)
# VH: B1 VH with G15K, R19K, K78Q, S87N, H102G, S125A
# VL: QAVVTQESALTTSPGETVTLTCRSSTGAVTTSNYANWVQEKPDHLFTGLIGGTNKRAPGVPARFSGSLIGDKAALTITGAQTEDEAIYFCALWYSNLWVFGGGTKLTVL
# notes: also called positive control antibody 1
# B3: CD3 monoclonal antibody M6 (antibody, human IgG1, lambda, V domains shown)
# VH: B1 VH with D68G, I80S, H102G, G105Y, Y114H
# VL: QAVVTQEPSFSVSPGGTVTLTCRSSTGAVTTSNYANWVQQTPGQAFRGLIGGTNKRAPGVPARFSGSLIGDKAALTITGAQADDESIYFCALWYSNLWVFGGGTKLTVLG
# notes: IgG: VH6 + IgG1 mutant CH, VL-1 + CL
# B4: CD3 monoclonal antibody M12 (antibody, human IgG1, lambda, V domains shown)
# VH: B1 VH with D68G, I80S, S87N, H102S, G105P
# VL: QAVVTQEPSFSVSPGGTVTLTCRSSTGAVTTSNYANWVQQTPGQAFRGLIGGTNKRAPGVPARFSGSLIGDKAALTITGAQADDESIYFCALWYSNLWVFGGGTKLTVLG
# notes: IgG: VH12 + IgG1 mutant CH, VL-1 + CL
# B5: CD3 monoclonal antibody M33 (antibody, human IgG1, lambda, V domains shown)
# VH: B1 VH with D68G, I80S, M95V, H102G, S107N, Y114S
# VL: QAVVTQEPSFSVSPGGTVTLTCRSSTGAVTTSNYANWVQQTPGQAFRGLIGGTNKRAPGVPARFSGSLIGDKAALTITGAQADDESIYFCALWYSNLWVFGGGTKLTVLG
# notes: IgG: VH33 + IgG1 mutant CH, VL-1 + CL
# B6: CD3 monoclonal antibody M35 (antibody, human IgG1, lambda, V domains shown)
# VH: B1 VH with I80S, S87N, M95V, H102S, F112W
# VL: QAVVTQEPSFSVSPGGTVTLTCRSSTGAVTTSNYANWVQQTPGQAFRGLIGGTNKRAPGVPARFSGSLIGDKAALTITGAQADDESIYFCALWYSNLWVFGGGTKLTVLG
# notes: IgG: VH35 + IgG1 mutant CH, VL-1 + CL
# B7: CD3 monoclonal antibody M16 (antibody, human IgG1, lambda, V domains shown)
# VH: B1 VH with D68G, M95V, H102G, A113Q
# VL: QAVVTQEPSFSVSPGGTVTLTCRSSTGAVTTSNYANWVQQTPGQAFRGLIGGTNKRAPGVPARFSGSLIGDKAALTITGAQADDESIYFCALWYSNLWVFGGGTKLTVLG
# notes: IgG: VH16 + IgG1 mutant CH, VL-1 + CL
# B8: CD3 monoclonal antibody M1 (antibody, human IgG1, lambda, V domains shown)
# VH: B1 VH with D68G, S87N, H102A, G105L
# VL: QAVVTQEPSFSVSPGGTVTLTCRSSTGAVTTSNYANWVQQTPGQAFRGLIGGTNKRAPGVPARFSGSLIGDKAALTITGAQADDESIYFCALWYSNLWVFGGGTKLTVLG
# notes: IgG: VH1 + IgG1 mutant CH, VL-1 + CL
# B9: CD3 monoclonal antibody M8 (antibody, human IgG1, lambda, V domains shown)
# VH: B1 VH with I80S, S87N, H102G, S107T, Y114M
# VL: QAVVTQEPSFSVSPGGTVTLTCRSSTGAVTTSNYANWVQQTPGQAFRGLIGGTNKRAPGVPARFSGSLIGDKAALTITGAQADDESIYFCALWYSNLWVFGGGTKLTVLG
# notes: IgG: VH8 + IgG1 mutant CH, VL-1 + CL
# B10: CD3 monoclonal antibody M23 (antibody, human IgG1, lambda, V domains shown)
# VH: B1 VH with D68G, H102S, G105L
# VL: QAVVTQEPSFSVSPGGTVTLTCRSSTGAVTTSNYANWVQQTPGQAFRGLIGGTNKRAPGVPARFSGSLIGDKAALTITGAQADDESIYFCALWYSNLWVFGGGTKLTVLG
# notes: IgG: VH23 + IgG1 mutant CH, VL-1 + CL
# B11: CD3 monoclonal antibody M3 (antibody, human IgG1, lambda, V domains shown)
# VH: B1 VH with H102G, A113E
# VL: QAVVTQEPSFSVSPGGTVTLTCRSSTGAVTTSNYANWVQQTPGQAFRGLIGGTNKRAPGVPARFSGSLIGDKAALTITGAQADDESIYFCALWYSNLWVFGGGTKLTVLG
# notes: IgG: VH3 + IgG1 mutant CH, VL-1 + CL
# B12: CD3 monoclonal antibody M5 (antibody, human IgG1, lambda, V domains shown)
# VH: B1 VH with M95V, H102G, G105K
# VL: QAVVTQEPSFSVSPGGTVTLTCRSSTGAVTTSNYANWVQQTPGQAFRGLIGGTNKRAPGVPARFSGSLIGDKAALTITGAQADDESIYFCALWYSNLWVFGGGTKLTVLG
# notes: IgG: VH5 + IgG1 mutant CH, VL-1 + CL
# B13: CD3 monoclonal antibody M22 (antibody, human IgG1, lambda, V domains shown)
# VH: B1 VH with D68G, H102E, N103R
# VL: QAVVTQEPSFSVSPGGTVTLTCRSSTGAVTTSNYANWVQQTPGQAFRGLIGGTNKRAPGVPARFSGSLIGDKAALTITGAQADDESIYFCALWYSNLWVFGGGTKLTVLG
# notes: IgG: VH22 + IgG1 mutant CH, VL-1 + CL
# B14: CD3 monoclonal antibody M17 (antibody, human IgG1, lambda, V domains shown)
# VH: B1 VH with H102G, G105W, Y114S
# VL: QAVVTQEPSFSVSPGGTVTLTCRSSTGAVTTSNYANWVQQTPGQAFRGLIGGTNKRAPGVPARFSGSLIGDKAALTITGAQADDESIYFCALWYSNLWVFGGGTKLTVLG
# notes: IgG: VH17 + IgG1 mutant CH, VL-1 + CL
# B15: CD3 monoclonal antibody M19 (antibody, human IgG1, lambda, V domains shown)
# VH: B1 VH with M95V, H102G, Y108A, A113Q
# VL: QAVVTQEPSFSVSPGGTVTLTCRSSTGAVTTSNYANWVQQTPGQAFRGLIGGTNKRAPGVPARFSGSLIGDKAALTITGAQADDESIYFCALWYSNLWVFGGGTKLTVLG
# notes: IgG: VH19 + IgG1 mutant CH, VL-1 + CL
# B16: CD3 monoclonal antibody M20 (antibody, human IgG1, lambda, V domains shown)
# VH: B1 VH with I80S, M95V, H102G, A113Q
# VL: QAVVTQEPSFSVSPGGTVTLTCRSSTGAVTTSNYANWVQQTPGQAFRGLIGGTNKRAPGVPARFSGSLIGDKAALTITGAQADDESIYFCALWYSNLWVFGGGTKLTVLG
# notes: IgG: VH20 + IgG1 mutant CH, VL-1 + CL
# B17: CD3 monoclonal antibody M32 (antibody, human IgG1, lambda, V domains shown)
# VH: B1 VH with D68G, I80S, M95V, H102S, Y108R
# VL: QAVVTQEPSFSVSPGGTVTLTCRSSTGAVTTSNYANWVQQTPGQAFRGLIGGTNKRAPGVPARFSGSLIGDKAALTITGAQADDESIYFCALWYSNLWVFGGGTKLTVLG
# notes: IgG: VH32 + IgG1 mutant CH, VL-1 + CL
# B18: CD3 monoclonal antibody M30 (antibody, human IgG1, lambda, V domains shown)
# VH: B1 VH with H102S, S107G
# VL: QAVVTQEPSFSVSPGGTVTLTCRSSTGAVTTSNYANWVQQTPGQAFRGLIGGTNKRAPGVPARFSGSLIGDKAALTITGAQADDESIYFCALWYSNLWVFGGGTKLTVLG
# notes: IgG: VH30 + IgG1 mutant CH, VL-1 + CL
# B19: CD3 monoclonal antibody M34 (antibody, human IgG1, lambda, V domains shown)
# VH: B1 VH with D68G, I80S, S87N, M95V, H102G, G105K, N106Q
# VL: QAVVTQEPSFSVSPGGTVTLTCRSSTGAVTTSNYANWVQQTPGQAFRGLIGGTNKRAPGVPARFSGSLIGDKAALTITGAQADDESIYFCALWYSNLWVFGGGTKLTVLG
# notes: IgG: VH34 + IgG1 mutant CH, VL-1 + CL
# B20: CD3 monoclonal antibody M2 (antibody, human IgG1, lambda, V domains shown)
# VH: B1 VH with D68G, I80S, H101A, H102K
# VL: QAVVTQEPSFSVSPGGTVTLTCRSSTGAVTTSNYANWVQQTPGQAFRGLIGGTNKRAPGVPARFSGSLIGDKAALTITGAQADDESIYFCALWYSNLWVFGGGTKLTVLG
# notes: IgG: VH2 + IgG1 mutant CH, VL-1 + CL
# B21: CD3 monoclonal antibody M21 (antibody, human IgG1, lambda, V domains shown)
# VH: B1 VH with D68G, I80S, H102S, S107T
# VL: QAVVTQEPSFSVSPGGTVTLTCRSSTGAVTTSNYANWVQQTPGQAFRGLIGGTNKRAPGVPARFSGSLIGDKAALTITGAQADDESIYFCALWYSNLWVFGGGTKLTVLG
# notes: IgG: VH21 + IgG1 mutant CH, VL-1 + CL
# B22: CD3 monoclonal antibody M13 (antibody, human IgG1, lambda, V domains shown)
# VH: B1 VH with D68G, I80S, M95V, H102G, G105K, V109G
# VL: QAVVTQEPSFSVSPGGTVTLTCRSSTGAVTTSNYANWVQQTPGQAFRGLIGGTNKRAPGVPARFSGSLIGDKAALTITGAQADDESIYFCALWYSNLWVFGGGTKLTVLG
# notes: IgG: VH13 + IgG1 mutant CH, VL-1 + CL
# B23: CD3 monoclonal antibody M29 (antibody, human IgG1, lambda, V domains shown)
# VH: B1 VH with D68G, H102G, G105P, N106M
# VL: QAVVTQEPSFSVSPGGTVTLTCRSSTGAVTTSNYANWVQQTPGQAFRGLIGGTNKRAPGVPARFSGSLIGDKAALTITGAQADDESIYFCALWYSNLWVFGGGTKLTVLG
# notes: IgG: VH29 + IgG1 mutant CH, VL-1 + CL
# B24: CD3 monoclonal antibody M24 (antibody, human IgG1, lambda, V domains shown)
# VH: B1 VH with D68G, M95V, H102S, N106R
# VL: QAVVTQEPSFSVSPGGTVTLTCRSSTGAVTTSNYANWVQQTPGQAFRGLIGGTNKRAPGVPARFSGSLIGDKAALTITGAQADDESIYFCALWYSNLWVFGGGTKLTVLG
# notes: IgG: VH24 + IgG1 mutant CH, VL-1 + CL
# B25: CD3 monoclonal antibody M4 (antibody, human IgG1, lambda, V domains shown)
# VH: B1 VH with S87N, M95V, H102G, G105Q, A113Q
# VL: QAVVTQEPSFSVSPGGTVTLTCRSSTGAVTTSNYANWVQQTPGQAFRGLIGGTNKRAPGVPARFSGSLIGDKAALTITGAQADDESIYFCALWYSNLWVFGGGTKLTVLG
# notes: IgG: VH4 + IgG1 mutant CH, VL-1 + CL
# B26: CD3 monoclonal antibody M9 (antibody, human IgG1, lambda, V domains shown)
# VH: B1 VH with D68G, H102G, A113K
# VL: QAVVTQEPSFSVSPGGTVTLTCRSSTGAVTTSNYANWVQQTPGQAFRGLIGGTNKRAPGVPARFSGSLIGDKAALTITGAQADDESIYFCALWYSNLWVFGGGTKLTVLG
# notes: IgG: VH9 + IgG1 mutant CH, VL-1 + CL
# B27: CD3 monoclonal antibody M18 (antibody, human IgG1, lambda, V domains shown)
# VH: B1 VH with I80S, H101A, H102G, S110N
# VL: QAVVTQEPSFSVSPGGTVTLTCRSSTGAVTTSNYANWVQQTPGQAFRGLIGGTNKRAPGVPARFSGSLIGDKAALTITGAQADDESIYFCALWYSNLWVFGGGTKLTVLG
# notes: IgG: VH18 + IgG1 mutant CH, VL-1 + CL
# B28: CD3 monoclonal antibody M7 (antibody, human IgG1, lambda, V domains shown)
# VH: B1 VH with I80S, S87N, H101A, H102G, A113E
# VL: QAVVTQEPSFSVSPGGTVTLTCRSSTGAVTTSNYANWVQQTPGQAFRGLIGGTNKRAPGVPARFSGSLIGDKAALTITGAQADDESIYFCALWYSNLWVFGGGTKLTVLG
# notes: IgG: VH7 + IgG1 mutant CH, VL-1 + CL
# B29: CD3 monoclonal antibody M27 (antibody, human IgG1, lambda, V domains shown)
# VH: B1 VH with D68G, H102A, Y114S
# VL: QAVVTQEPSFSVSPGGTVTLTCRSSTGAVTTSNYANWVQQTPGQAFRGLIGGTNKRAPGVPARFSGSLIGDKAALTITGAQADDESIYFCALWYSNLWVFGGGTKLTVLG
# notes: IgG: VH27 + IgG1 mutant CH, VL-1 + CL
# B30: CD3 monoclonal antibody M10 (antibody, human IgG1, lambda, V domains shown)
# VH: B1 VH with I80S, M95V, H102S, G105R
# VL: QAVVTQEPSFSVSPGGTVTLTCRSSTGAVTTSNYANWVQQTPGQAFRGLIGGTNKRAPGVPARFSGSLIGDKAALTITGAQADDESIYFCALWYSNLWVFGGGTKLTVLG
# notes: IgG: VH10 + IgG1 mutant CH, VL-1 + CL
# B31: CD3 monoclonal antibody M26 (antibody, human IgG1, lambda, V domains shown)
# VH: B1 VH with S87N, H102G, Y108Q, A113Q
# VL: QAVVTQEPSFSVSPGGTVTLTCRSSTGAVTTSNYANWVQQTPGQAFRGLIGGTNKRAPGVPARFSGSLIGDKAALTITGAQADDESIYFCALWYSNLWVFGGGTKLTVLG
# notes: IgG: VH26 + IgG1 mutant CH, VL-1 + CL
# B32: CD3 monoclonal antibody M15 (antibody, human IgG1, lambda, V domains shown)
# VH: B1 VH with I80S, H102G, N103D, F104P
# VL: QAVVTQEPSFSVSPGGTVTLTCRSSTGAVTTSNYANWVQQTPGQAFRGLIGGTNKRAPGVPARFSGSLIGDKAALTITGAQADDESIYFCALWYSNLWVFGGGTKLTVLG
# notes: IgG: VH15 + IgG1 mutant CH, VL-1 + CL
# B33: CD3 monoclonal antibody M31 (antibody, human IgG1, lambda, V domains shown)
# VH: B1 VH with D68G, S87N, M95V, H102S, A113E
# VL: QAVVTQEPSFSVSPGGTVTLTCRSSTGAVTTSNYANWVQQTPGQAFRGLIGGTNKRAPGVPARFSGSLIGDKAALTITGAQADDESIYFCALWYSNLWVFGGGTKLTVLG
# notes: IgG: VH31 + IgG1 mutant CH, VL-1 + CL
# B34: CD3 monoclonal antibody M11 (antibody, human IgG1, lambda, V domains shown)
# VH: B1 VH with I80S, M95V, H102S, G105V
# VL: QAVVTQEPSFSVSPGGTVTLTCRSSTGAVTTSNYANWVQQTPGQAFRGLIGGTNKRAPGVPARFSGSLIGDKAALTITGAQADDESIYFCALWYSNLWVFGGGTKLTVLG
# notes: IgG: VH11 + IgG1 mutant CH, VL-1 + CL
# B35: CD3 monoclonal antibody M25 (antibody, human IgG1, lambda, V domains shown)
# VH: B1 VH with H102G, Y108R
# VL: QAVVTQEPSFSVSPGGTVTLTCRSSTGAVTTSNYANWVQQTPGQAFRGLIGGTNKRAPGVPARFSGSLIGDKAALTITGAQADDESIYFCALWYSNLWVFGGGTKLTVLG
# notes: IgG: VH25 + IgG1 mutant CH, VL-1 + CL
# B36: CD3 monoclonal antibody M14 (antibody, human IgG1, lambda, V domains shown)
# VH: B1 VH with I80S, H102S, A113E
# VL: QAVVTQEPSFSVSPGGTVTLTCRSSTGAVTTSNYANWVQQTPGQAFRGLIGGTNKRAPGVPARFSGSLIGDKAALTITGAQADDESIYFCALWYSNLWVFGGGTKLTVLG
# notes: IgG: VH14 + IgG1 mutant CH, VL-1 + CL
# B37: Positive control antibody OKT3 (antibody, V domains shown)
# VH: not shown
# VL: QIVLTQSPAIMSASPGEKVTMTCSASSSVSYMNWYQQKSGTSPKRWIYDTSKLASGVPAHFRGSGSGTSYSLTISGMEAEDAATYYCQQWSSNPFTFGSGTKLEI
# Molecular target: T1, Human CD3 on Jurkat cells (human, UniProt P07766 23-207; P09693 23-182; P04234 22-171)
# T1 construct: whole, on cells; also called Human CD3-expressing Jurkat cells; Jurkat (naturally expressing human CD3)
# Test: flow cytometry on Jurkat cells
row,Binder,EC50 [nM]
1,B1,0.854
2,B2,0.473
3,B3,0.169
4,B4,0.27
5,B5,4.92
6,B6,0.792
7,B7,0.477
8,B8,0.581
9,B9,0.268
10,B10,0.186
11,B11,0.261
12,B12,0.154
13,B13,2.55
14,B14,0.181
15,B15,0.19
16,B16,61.7
17,B17,0.188
18,B18,0.302

row,Binder,EC50 [nM]
1,B19,2.58
2,B20,0.214
3,B21,41.6
4,B22,0.832
5,B23,0.412
6,B24,1.32
7,B25,0.402
8,B26,1.51
9,B27,0.515
10,B28,1.71
11,B29,0.403
12,B30,1.23
13,B31,0.235
14,B32,0.166
15,B33,1.56
16,B34,0.13
17,B35,0.0954
18,B36,1.51

# Molecular target: T2, Human CD3εγ recombinant antigen (acrobiosystems, Cat. No. CDG-H52W5) (human, UniProt P07766 23-126; P09693 23-116)
# T2 construct: Bought recombinant protein
# Test: SPR chip (Carterra), antibody captured, antigen in flow;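 further: antibodies captured through anti-human IgG Fc at roughly 1000 RU, kinetic constants fitted with a 1:1 binding model in Carterra analysis software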
# Method: Antibodies at three concentrations of 4, 2, and 1 μg/mL were immobilized on the HC200M chip containing anti-human IgG Fc secondary antibody (Xantec, Cat. No.: HC200M), and the antibody binding amount was controlled to approximately 1000RU. […] The kinetic constants were obtained by fitting using the 1:1 binding model of Kinetics software from Carterra.
Binder,Kd [nM],koff [s⁻¹],kon [M⁻¹ s⁻¹]
B1,2.53,0.00237,938000
B3,3.63,0.00354,973000
B4,1.93,0.00768,3.97e+06
B5,19.3,0.0054,280000
B6,0.842,0.00283,3.36e+06
B7,2.02,0.00188,929000
B8,2.57,0.0105,4.09e+06
B9,5.16,0.0032,620000
B10,1.57,0.00549,3.5e+06
B11,1.36,0.0015,1.1e+06
B12,5.84,0.0101,1.74e+06
B13,3.33,0.00222,666000
B14,2.52,0.00108,429000
B15,1.57,0.00256,1.63e+06
B16,2.56,0.00232,908000
B17,4.37,0.0133,3.05e+06
B18,2.93,0.00234,798000
B19,7.22,0.0034,471000

Binder,Kd [nM],koff [s⁻¹],kon [M⁻¹ s⁻¹]
B20,6.6,0.00363,550000
B21,3.71,0.00649,1.75e+06
B22,3.33,0.00045,135000
B23,5.88,0.00776,1.32e+06
B24,1.06,0.00358,3.38e+06
B25,3.4,0.00517,1.52e+06
B26,1.92,0.0025,1.3e+06
B27,179,,
B28,2.39,0.0011,460000
B29,2.44,0.0028,1.15e+06
B30,2.15,0.00653,3.04e+06
B31,3.51,0.00543,1.55e+06
B32,160,,
B33,0.43,0.00126,2.92e+06
B34,2.95,0.00677,2.3e+06
B35,5.27,0.0048,910000
B36,0.624,0.00128,2.05e+06

# Molecular target: T3, Monkey CD3 on cynomolgus HSC-F cells (cynomolgus monkey, UniProt Q95LI5 22-198; Q95LI7 23-181; Q95LI8 22-171)
# T3 construct: whole, on cells; also called Monkey CD3-expressing cynomolgus HSC-F cells; cynomolgus monkey CD3-expressing HSC-F cells
# Test: flow cytometry on HSC-F cells
Binder,binding result,EC50 [nM]
B37,no binding (tested: 2 µg/ml starting concentration),
B1,,0.287
B2,,0.487
B3,,0.172
B4,,0.162
B5,,1.55
B6,,0.207
B7,,0.162
B8,,0.117
B9,,0.186
B10,,0.164
B11,,0.315
B12,,0.152
B13,,2.31
B14,,0.21
B15,,0.238
B16,,6.58
B17,,0.0667
B18,,0.347

Binder,binding result,EC50 [nM]
B19,,0.266
B20,,0.225
B21,,1.23
B22,,0.276
B23,,0.272
B24,,0.12
B25,,0.434
B26,,0.237
B27,,0.841
B28,,0.69
B29,,0.165
B30,,0.194
B31,,0.223
B32,,0.118
B33,,0.154
B34,,0.169
B35,,0.111
B36,,0.271
